# Experiments:
# mouse A1 ΔC20 (mouse) = mouse A1 ΔC20 (mouse) (UniProt Q07440); assay: Biacore solution competition against immobilised mouse wtBimBH3
# [1] = target: mouse Mcl-1 ΔN151 ΔC23 (mouse) (UniProt P97287); assay: as above
# [2] = target: m ^wtBimBH3 (83-108) (mouse); assay: SPR (Biacore 3000), protein over immobilised m wtBimBH3
# [3] = target: mouse Mcl-1 ΔN151 ΔC23 (mouse) (UniProt P97287); assay: from the solution competition affinities
# Sequence of mouse Mcl-1 ΔN151 ΔC23 (mouse) (P97287 other isoform, or with tags, fused parts or gaps mutant): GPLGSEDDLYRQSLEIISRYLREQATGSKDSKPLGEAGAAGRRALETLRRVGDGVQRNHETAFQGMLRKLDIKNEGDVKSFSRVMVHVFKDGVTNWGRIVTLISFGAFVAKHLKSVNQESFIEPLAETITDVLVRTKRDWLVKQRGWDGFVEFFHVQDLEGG
# Sequence of m ^wtBimBH3 (83-108) (mouse) (peptide, as listed by the source limits assumed): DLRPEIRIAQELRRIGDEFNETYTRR
# Sequence of mouse A1 ΔC20 (mouse) (Q07440 other isoform, or with tags, fused parts or gaps mutant): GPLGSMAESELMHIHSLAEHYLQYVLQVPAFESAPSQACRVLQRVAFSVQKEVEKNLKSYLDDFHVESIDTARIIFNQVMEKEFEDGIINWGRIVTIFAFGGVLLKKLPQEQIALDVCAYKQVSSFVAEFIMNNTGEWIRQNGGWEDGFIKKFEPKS
Substance,IC50 (mouse A1 ΔC20 (mouse)) [nM],IC50 [1] [nM],Kd [2] [nM],koff [2] [s⁻¹],kon [2] [M⁻¹ s⁻¹],fold weaker binding than to Bcl-xL [3] [fold]
"Puma (130-155) BH3 peptide, human",5.7,5,–,–,–,–
mouse A1 ΔC20 (from UniProt Q07440 1-152),–,–,0.5,0.00014,290000,–
"Hrk (26-51) BH3 peptide, human",46,370,–,–,–,–
mouse Mcl-1 ΔN151 ΔC23 (from UniProt P97287 152-308),–,–,0.2,0.00026,1.3e+06,–
"Bik (51-75) BH3 peptide, human",58,1700,–,–,–,40
